Consider seven sequences from the supplement of paper PMC11246515.

± gives the standard deviation of the averaged measurements.

A short description of this data set: total protein half-life in vivo (active degradation + dilution); higher = more stable protein.
The mark [1] stands for this setting: E. coli NCM3722 delta-clpP delta-lon delta-hslV, growth: N-lim chemostat, doubling time 6 h.
Where [2] appears, read: E. coli NCM3722 delta-clpP, growth: N-lim chemostat, doubling time 6 h.
The mark [3] stands for this setting: E. coli NCM3722 delta-hslV, growth: N-lim chemostat, doubling time 6 h.
[4] abbreviates: E. coli NCM3722 delta-lon, growth: N-lim chemostat, doubling time 6 h.
Where [5] appears, read: E. coli NCM3722 delta-smpB, growth: N-lim chemostat, doubling time 6 h.
[6] abbreviates: wild type E. coli NCM3722, growth: C-lim chemostat, doubling time 3 h.
Where [7] appears, read: wild type E. coli NCM3722, growth: C-lim chemostat, doubling time 6 h.
Where [8] appears, read: wild type E. coli NCM3722, growth: C-lim chemostat, doubling time 12 h.
Setting [9] is: wild type E. coli NCM3722, growth: N-lim chemostat, doubling time 6 h.
Where [10] appears, read: wild type E. coli NCM3722, growth: N-lim chemostat, doubling time 12 h.
[11] abbreviates: wild type E. coli NCM3722, growth: P-lim chemostat, doubling time 6 h.
[12] abbreviates: wild type E. coli NCM3722, growth: P-lim chemostat, doubling time 12 h.

As to “MRRVNILCSFALLFASHTSLAVTYPLPPEGSRLVGQSFTVTVPDHNTQPLETFAAQYGQGLSNMLEANPGADVFLPKSGSQLTIPQQLILPDTVRKGIVVNVAEMRLYYYPPDSNTVEVFPIGIGQAGRETPRNWVTTVERKQEAPTWTPTPNTRREYAKRGESLPAFVPAGPDNPMGLYAIYIGRLYAIHGTNANFGIGLRVSQGCIRLRNDDIKYLFDNVPVGTRVQIIDQPVKYTTEPDGSNWLEVHEPLSRNRAEYESDRKVPLPVTPSLRAFINGQEVDVNRANAALQRRSGMPVQISSGSRQMF”, the “total protein half-life in vivo” value runs as follows: under setting [1], 5.58 ± 1.1 h; under setting [2], 6.17 ± 0.48 h; under setting [3], 5.997 ± 0.037 h; under setting [4], 6.9 ± 1 h; under setting [5], 5.83 ± 0.5 h; under setting [6], 3.35 ± 0.46 h. Further, the “total protein half-life in vivo” value runs as follows: under setting [7], 5.64 ± 0.53 h; under setting [8], 10.128 ± 0.0088 h; under setting [9], 6.43 ± 0.88 h; under setting [10], 11.4 ± 0.34 h; under setting [11], 5.24 ± 0.69 h; under setting [12], 11.3 ± 0.51 h.
Take “MQFEKMITEGSNTASAEIDRVSTLEMCRIINDEDKTVPLAVERVLPDIAAAIDVIHAQVSGGGRLIYLGAGTSGRLGILDASECPPTYGVKPGLVVGLIAGGEYAIQHAVEGAEDSREGGVNDLKNINLTAQDVVVGIAASGRTPYVIAGLEYARQLGCRTVGISCNPGSAVSTTAEFAITPIVGAEVVTGSSRMKAGTAQKLVLNMLSTGLMIKSGKVFGNLMVDVVATNEKLHVRQVNIVKNATGCSAEQAEAALIACERNCKTAIVMVLKNLDAAEAKKRLDQHGGFIRQVLDKE”: the “total protein half-life in vivo” value runs as follows: under setting [1], 5.64 ± 0.068 h; under setting [2], 4.82 ± 0.37 h; under setting [3], 5.96 ± 1.8 h; under setting [4], 4.88 ± 0.37 h; under setting [5], 4.08 ± 0.35 h; under setting [6], 3.04 ± 0.084 h. Further, the “total protein half-life in vivo” value was 5.28 ± 0.059 h under setting [7]; 8.41 ± 0.19 h under setting [8]; 4.37 ± 0.25 h under setting [9]; 8.74 ± 0.62 h under setting [10]; 5.92 ± 1.1 h under setting [11]; 9.65 ± 0.26 h under setting [12].
For “MKKIALIIGSMIAGGIISAAGFTWVAKAEPPAEKTSTAERKILFWYDPMYPNTRFDKPGKSPFMDMDLVPKYADEESSASGVRIDPTQTQNLGVKTATVTRGPLTFAQSFPANVSYNEYQYAIVQARAAGFIDKVYPLTVGDKVQKGTPLLDLTIPDWVEAQSEYLLLRETGGTATQTEGILERLRLAGMPEADIRRLIATQKIQTRFTLKAPIDGVITAFDLRAGMNIAKDNVVAKIQGMDPVWVTAAIPESIAWLVKDASQFTLTVPARPDKTLTIRKWTLLPGVDAATRTLQLRLEVDNADEALKPGMNAWLQLNTASEPMLLIPSQALIDTGSEQRVITVDADGRFVPKRVAVFQASQGVTALRSGLAEGEKVVSSGLFLIDSEANISGALERMRSESATHAH”, the “total protein half-life in vivo” value by setting is: under setting [1], 2.95 h; under setting [2], 4.8 h; under setting [3], 5.69 ± 0.66 h; under setting [4], 4.62 h; under setting [5], 4.32 ± 1.3 h; under setting [6], greater than 4 h. Besides, the “total protein half-life in vivo” value is, setting by setting: under setting [7], 5.79 h; under setting [8], greater than 16 h; under setting [9], 5.73 ± 0.53 h; under setting [10], 10.2 ± 0.68 h; under setting [11], 5.52 ± 0.11 h; under setting [12], 10.7 ± 0.35 h.
For the sequence “MFTIKTDDLTHPAVQALVAYHISGMLQQSPPESSHALDVQKLRNPTVTFWSVWEGEQLAGIGALKLLDDKHGELKSMRTAPNYLRRGVASLILRHILQVAQDRCLHRLSLETGTQAGFTACHQLYLKHGFADCEPFADYRLDPHSRFLSLTLCENNELP”, the “total protein half-life in vivo” value is, setting by setting: under setting [2], 1.46 ± 0.029 h; under setting [3], 0.809 h; under setting [4], 0.314 h; under setting [5], 0.854 ± 0.023 h; under setting [9], 1.03 ± 0.61 h; under setting [10], 1.92 h.
Regarding “MGAYLIRRLLLVIPTLWAIITINFFIVQIAPGGPVDQAIAAIEFGNAGVLPGAGGEGVRASHAQTGVGNISDSNYRGGRGLDPEVIAEITHRYGFDKPIHERYFKMLWDYIRFDFGDSLFRSASVLTLIKDSLPVSITLGLWSTLIIYLVSIPLGIRKAVYNGSRFDVWSSAFIIIGYAIPAFLFAILLIVFFAGGSYFDLFPLRGLVSANFDSLPWYQKITDYLWHITLPVLATVIGGFAALTMLTKNSFLDEVRKQYVVTARAKGVSEKNILWKHVFRNAMLLVIAGFPATFISMFFTGSLLIEVMFSLNGLGLLGYEATVSRDYPVMFGTLYIFTLIGLLLNIVSDISYTLVDPRIDFEGR [P0AFU0]”, the “total protein half-life in vivo” value under setting [1] stood at 7.09 ± 0.14 h; the “total protein half-life in vivo” value under setting [2] stood at 5.97 h; the “total protein half-life in vivo” value under setting [3] came to 6.39 ± 0.7 h; the “total protein half-life in vivo” value under setting [4] was 5.52 ± 0.49 h; the “total protein half-life in vivo” value under setting [5] was 5.85 ± 0.32 h; the “total protein half-life in vivo” value under setting [6] turned out to be 3.47 ± 0.61 h. The “total protein half-life in vivo” value reads like this: under setting [7], 5.83 ± 1.1 h; under setting [8], 13.9 ± 1.7 h; under setting [9], 5.33 h; under setting [10], 11.8 ± 1.6 h; under setting [11], 6.2 h; under setting [12], 12.4 ± 0.79 h.
As to “MKRLKNELNALVNRGVDRHLRLAVTGLSRSGKTAFITAMVNQLLNIHAGARLPLLSAVREERLLGVKRIPQRDFGIPRFTYDEGLAQLYGDPPAWPTPTRGVSEIRLALRFKSNDSLLRHFKDTSTLYLEIVDYPGEWLLDLPMLAQDYLSWSRQMTGLLNGQRGEWSAKWRMMSEGLDPLAPADENRLADIAAAWTDYLHHCKEQGLHFIQPGRFVLPGDMAGAPALQFFPWPDVDTWGESKLAQADKHTNAGMLRERFNYYCEKVVKGFYKNHFLRFDRQIVLVDCLQPLNSGPQAFNDMRLALTQLMQSFHYGQRTLFRRLFSPVIDKLLFAATKADHVTIDQHANMVSLLQQLIQDAWQNAAFEGISMDCLGLASVQATTSGIIDVNGEKIPALRGNRLSDGAPLTVYPGEVPARLPGQAFWDKQGFQFEAFRPQVMDVDKPLPHIRLDAALEFLIGDKLR”, the “total protein half-life in vivo” value runs as follows: under setting [1], 6.51 ± 0.91 h; under setting [2], 6.53 ± 0.49 h; under setting [3], 6.01 ± 0.15 h; under setting [4], 5.93 ± 0.19 h; under setting [5], 5.925 ± 0.037 h; under setting [6], 2.94 ± 0.0058 h. Besides, the “total protein half-life in vivo” value under setting [7] turned out to be 6.04 ± 0.74 h; the “total protein half-life in vivo” value under setting [8] turned out to be 10.8 ± 3.9 h; the “total protein half-life in vivo” value under setting [9] was 5.52 ± 0.18 h; the “total protein half-life in vivo” value under setting [10] came out at 12.23 ± 0.11 h; the “total protein half-life in vivo” value under setting [11] stood at 6.1 ± 0.29 h; the “total protein half-life in vivo” value under setting [12] worked out at 12.2 ± 0.47 h.
In the case of “MDYRKIIKEIGRGKNHARDLDRDTARGLYAHMLNGEVPDLELGGVLIALRIKGEGEAEMLGFYEAMQNHTIKLTPPAGKPMPIVIPSYNGARKQANLTPLLAILLHKLGFPVVVHGVSEDPTRVLTETIFELMGITPTLHGGQAQAKLDEHQPVFMPVGAFCPPLEKQLAMRWRMGVRNSAHTLAKLATPFAEGEALRLSSVSHPEYIGRVAKFFSDIGGRALLMHGTEGEVYANPQRCPQINLIDREGMRVLYEKQDTAGSELLPQAKDPETTAQWIERCLAGSEPIPESLKIQMACCLVATGEAATISDGLARVNQAF”, the “total protein half-life in vivo” value was 4.81 ± 0.7 h under setting [1]; 4.14 ± 0.24 h under setting [2]; 4.41 ± 0.12 h under setting [3]; 5.22 ± 0.37 h under setting [4]; 4.44 ± 0.42 h under setting [5]; 3.09 ± 0.67 h under setting [6]. Besides, the “total protein half-life in vivo” value worked out at 5.84 ± 0.53 h under setting [7]; 9.72 ± 1.2 h under setting [8]; 4.54 ± 0.17 h under setting [9]; 7.03 ± 0.37 h under setting [10]; 5.83 ± 0.098 h under setting [11]; 11.7 ± 0.24 h under setting [12].
